Where no end group is shown, it is not given here. Me2 = dimethyl-lysine
Columns and labels:
Assay in all cases: ITC
53BP1 Tudor Y1500A = 53BP1 Tudor Y1500A (H. sapiens, UniProt Q12888 1484-1603, Y1500A)
53BP1 Tudor Y1523A = 53BP1 Tudor Y1523A (H. sapiens, UniProt Q12888 1484-1603, Y1523A)
53BP1 Tudor W1495A = 53BP1 Tudor W1495A (H. sapiens, UniProt Q12888 1484-1603, W1495A)
[1] = target: T1, 53BP1 tandem Tudor domain (1484-1603) (H. sapiens, UniProt Q12888 1484-1603)
T1 chain: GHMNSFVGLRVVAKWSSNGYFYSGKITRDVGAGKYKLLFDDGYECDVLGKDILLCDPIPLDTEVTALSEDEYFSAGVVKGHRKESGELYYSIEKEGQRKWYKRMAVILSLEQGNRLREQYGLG

53BP1 Tudor Y1523S = 53BP1 Tudor Y1523S (H. sapiens, UniProt Q12888 1484-1603, Y1523S)
53BP1 Tudor D1521A = 53BP1 Tudor D1521A (H. sapiens, UniProt Q12888 1484-1603, D1521A)
Chain of 53BP1 Tudor D1521A (Q12888 other isoform, or with tags, fused parts or gaps D1521A | D1521A): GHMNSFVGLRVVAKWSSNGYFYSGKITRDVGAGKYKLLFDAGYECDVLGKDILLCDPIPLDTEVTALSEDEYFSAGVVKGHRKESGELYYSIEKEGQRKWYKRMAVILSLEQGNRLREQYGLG

53BP1 Tudor Y1502A = 53BP1 Tudor Y1502A (H. sapiens, UniProt Q12888 1484-1603, Y1502A)
Chain of 53BP1 Tudor Y1502A (Q12888 other isoform, or with tags, fused parts or gaps Y1502A | Y1502A): as the sequence (Q12888 other isoform, or with tags, fused parts or gaps D1521A | D1521A) above, with Y22A, A41D counted along it

Chain of 53BP1 Tudor W1495A (Q12888 other isoform, or with tags, fused parts or gaps W1495A | W1495A): as the sequence (Q12888 other isoform, or with tags, fused parts or gaps D1521A | D1521A) above, with W15A, A41D counted along it
Chain of 53BP1 Tudor Y1500A (Q12888 other isoform, or with tags, fused parts or gaps Y1500A | Y1500A): as the sequence (Q12888 other isoform, or with tags, fused parts or gaps D1521A | D1521A) above, with Y20A, A41D counted along it

Kd (53BP1 Tudor Y1500A): 163 µM
Kd (53BP1 Tudor Y1523A): 7.8 µM
Kd (53BP1 Tudor W1495A): > 1.5 mM
Kd [1]: 19.7 µM
Kd (53BP1 Tudor Y1523S): 65.8 µM
Kd (53BP1 Tudor D1521A): > 1.5 mM
Kd (53BP1 Tudor Y1502A): 151 µM
Binder: KRHRK(Me2)VLRDN [H4K20me2]

— publication PMC5974088 (2018)
